From patent US20220348939

System: Type I-F Csy (Cascade) complex with Cas2-3 (cas1, cas3, csy1-csy4), endogenous (Zymomonas mobilis ZM4)
Experiment: cell_activity

## AUCUUGACUCCCUCCAUGCACUUAAAAAAUCU / ATCTTGACTCCCTCCATGCACTTAAAAAATCT / AGATTTTTTAAGTGCATGGAGGGAGTCAAGAT [ZMO0038 His-tag crRNA spacer ; ZMO0038 start codon target]
PAM 5'-TCC-3', His-tag insertion efficiency
  activity: 100%

## AUGCCGCUUUCGAUCAGGCCGCCGCCAAGAUU / ATGCCGCTTTCGATCAGGCCGCCGCCAAGATT / AATCTTGGCGGCGGCCTGATCGAAAGCGGCAT [ZMO0038 knockout crRNA spacer ; ZMO0038 target]
PAM 5'-CCC-3', knockout efficiency
  activity: 100%
